Experimental data reported in patent US20240052061A1 (PURINOMIA BIOTECH, published 2024).
Numbering of substitutions follows the chain as printed. One block for each binder: values may come before it.

Tests used:
[1] = molecular target: T1, human ecto-nucleoside triphosphate diphosphohydrolase-3 (NTPDase3) (human, UniProt O75355 1-529); assay: cell-based or functional assay
T1 sequence (looked up): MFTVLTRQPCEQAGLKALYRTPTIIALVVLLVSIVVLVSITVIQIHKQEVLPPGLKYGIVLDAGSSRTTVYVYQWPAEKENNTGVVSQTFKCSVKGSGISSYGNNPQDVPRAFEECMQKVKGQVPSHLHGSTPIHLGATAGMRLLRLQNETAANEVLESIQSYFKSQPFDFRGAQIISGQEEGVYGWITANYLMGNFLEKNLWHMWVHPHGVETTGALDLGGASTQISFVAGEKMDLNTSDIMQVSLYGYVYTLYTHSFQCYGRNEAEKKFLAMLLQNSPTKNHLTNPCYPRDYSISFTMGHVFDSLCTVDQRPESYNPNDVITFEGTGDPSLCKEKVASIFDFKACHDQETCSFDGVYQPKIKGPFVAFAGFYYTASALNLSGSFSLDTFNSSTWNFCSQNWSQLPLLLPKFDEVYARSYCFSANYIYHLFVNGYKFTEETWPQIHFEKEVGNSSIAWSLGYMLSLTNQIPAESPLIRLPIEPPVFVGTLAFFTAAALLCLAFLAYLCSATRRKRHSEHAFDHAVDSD

[2] = molecular target: T1, human ecto-nucleoside triphosphate …; assay: cell-based or functional assay; remark: listed apart in the source
[3] = molecular target: T1, human ecto-nucleoside triphosphate …; assay: flow cytometry on CHO-hENTPD3 cells, 2 hours at 37 °C (FIG. 19)
Excerpt: (§1) FIG. 19. Affinity of the fully human anti-hENTPD3 monoclonal antibody PBI #30 hIgG1 measured by flow cytometry using CHO-hENTPD3 and COS7-hENTPD3 cells. Generally, FIG. 19 and following are directed to analyses of anti-hENTPD3 monoclonal antibody clones that have been further optimized exemplary (e.g., affinity maturation and isotype switching for PBI #30 and humanization of 8E1 and 38D5) and related detection methods.

[4] = molecular target: T1, human ecto-nucleoside triphosphate …; assay: flow cytometry on CHO-hENTPD3 cells, 30 minutes at 4 °C (FIG. 1)
Method: FIG. 1. Affinity of PBI #30 measured by flow cytometry using human ENTPD3 (hENTPD3) positive CHO cells (stably transfected cells). PBI #30 was serially diluted as indicated (top dose 333 nM) and incubated with CHO-hENTPD3 cells for 30 minutes at 4° C., followed by secondary antibody staining (anti-human IgG (Fc specific), Alexa Fluor® 488) for 30 minutes at 4° C. and flow cytometry analysis.

[5] = molecular target: T1, human ecto-nucleoside triphosphate …; assay: flow cytometry on COS7-hENTPD3 cells, 2 hours at 37 °C (FIG. 19)
Excerpt: as §1

[6] = molecular target: T1, human ecto-nucleoside triphosphate …; assay: flow cytometry on COS7-hENTPD3 cells, 30 minutes at 4 °C (FIG. 2)
Excerpt: FIG. 2. Affinity of PBI #30 measured by flow cytometry using hENTPD3 positive COS-7 cells (stably transfected cells).

[7] = molecular target: T1, human ecto-nucleoside triphosphate …; assay: flow cytometry on HEK293T-hENTPD3 cells, 30 minutes at 4 °C (FIG. 3)
Excerpt: FIG. 3. Affinity of PBI #30 measured by flow cytometry using hENTPD3 positive HEK293T cells (stably transfected cells).

[8] = molecular target: T1, human ecto-nucleoside triphosphate …; assay: flow cytometry on RT4 bladder cancer cells (endogenous hENTPD3), 30 minutes at 4 °C (FIG. 4)
Excerpt: FIG. 4. Affinity of PBI #30 measured by flow cytometry using RT4 bladder cancer cells that endogenously express hENTPD3.

EC50 of hENTPD3 enzyme activity inhibition, CHO-hENTPD3 cells, antibody 30 minutes [1]: 15.9 µg/mL
enzyme activity inhibition capacity, maximal inhibition [1]: ~40%
ADCC EC50 (µg/mL), NFAT luciferase reporter Jurkat/hCD16a-158V [2]: 0.104 µg/mL
CDC EC50 [2]: 1.73 µg/mL
Enzyme Activity Inhibition Capacity: % of Maximal Inhibition [2]: 44%
Enzyme Activity Inhibition Capacity: EC50 [2]: 0.31 µg/mL
B1: 38D5 Hu/Ra (antibody, V domains shown)
VH: QELVESGGGLVQPGGSLKLSCKASGIDFNNYGISWVRQAPGKGLEWIAYKYPGFGIRNYANSVKGRFTISSDNAQNTVFLQMTSLAASDTATYFCARGARYRHDDYGALNLWGPGTLVTVSS
VL: DIVMTQTPPSVSAAVGGTVTINCQASQSVTNLLAWYQQKPGQPPKLLIYGASNLESGVPSRFRGSGSGTEFTLTISGMKAEDAATYYCQSGYYSANTFGAGTKVGIKR
CDC % of Maximal Cytotoxicity [2]: 1%

ADCC EC50 (µg/mL), NFAT luciferase reporter Jurkat/hCD16a-158V [2]: 0.059 µg/mL
Enzyme Activity Inhibition Capacity: % of Maximal Inhibition [2]: 9%
B2: 38D12 Hu/Ra (antibody, V domains shown)
VH: QSVEESGGRLVTPGTPLTLTCTVSGFSLSSYVINWVRQAPGKGLEWIGTISSSGSTYYASWAKGRFTISTTSSTTVDLKITSPTTEDTATYFCARGADGAFISDYFNIWGPGTLVTVSS
VL: DIVMTQTPSSVSAAVGGTVTIKCQANENIDSWLAWYQQKPGQRPKLLIYYASTLASGVPSRFKGSGSGTEYTLTISDLECADGATYYCQSYDTISDYGVGFGGGTEVVVKG

ADCC EC50 (µg/mL), NFAT luciferase reporter Jurkat/hCD16a-158V [2]: 0.044 µg/mL
Enzyme Activity Inhibition Capacity: % of Maximal Inhibition [2]: 6%
B3: 3E9 Hu/Ra (antibody, V domains shown)
VH: QSLEESGGDLVKPGASLTLTCTASGFSFSSSDWICWVRQAPGKGLEWIACIYAGSIGGAYFASWVNGRFTISRASSTTVTLQMTSLTAADTATYFCARSSSNGRLKLDQFDLWGPGTLVTVSS
VL: AYDMTQTPASVEVAVGGTVTINCQASQSIGGWLSWYRQKPGQPPSLLIYKASTLASGVSSRFSGTGSRTHFTLTINGVQCADAATYYCQQGSAADVANTFGGGTEVVVKG

ADCC EC50 (µg/mL), NFAT luciferase reporter Jurkat/hCD16a-158V [2]: 0.104 µg/mL
ADCC fold increase in relation to parental clone at 1 µg/mL [2]: 1.2 fold
CDC EC50 [2]: 0.694 µg/mL
Enzyme Activity Inhibition Capacity: % of Maximal Inhibition [2]: 43%
Enzyme Activity Inhibition Capacity: EC50 [2]: 0.22 µg/mL
B4: 38D5 hIgG1 (antibody, V domains shown)
VH: EQQLLESGGGLVQPGGSLRLSCAASGIDFNNYGISWVRQAPGKGLEWIAYKYPGFGIRNYANSVKGRFTISSDNSKNTVYLQMNSLRAEDTAVYFCARGARYRHDDYGALNLWGPGTLVTVSS
VL: DIQMTQSPSTLSASVGDRVTITCQASQSVTNLLAWYQQKPGKPPKLLIYGASNLESGVPSRFSGSGSGTEFTLTISSLQPDDFATYYCQSGYYSANTFGPGTKVDIK
CDC % of Maximal Cytotoxicity [2]: 4%

Enzyme Activity Inhibition Capacity: % of Maximal Inhibition [2]: 41%
B5: 38D5 hIgG4 (antibody, V domains shown)
VH: B4 VH
VL: B4 VL

enzyme activity inhibition capacity, maximal inhibition [1]: ~100%
ADCC EC50 (µg/mL), NFAT luciferase reporter Jurkat/hCD16a-158V [2]: 0.434 µg/mL
ADCC fold increase in relation to parental clone at 1 µg/mL [2]: 2.8 fold
Enzyme Activity Inhibition Capacity: % of Maximal Inhibition [2]: 91%
Enzyme Activity Inhibition Capacity: EC50 [2]: 0.82 µg/mL
B6: PBI #30af4 hIgG1 (antibody, V domains shown)
VH: QVQLQESGGGLIQPGGSLRLSCAASGFTSSSSDYAMSWVRQAPGKGLEWVSSISGSGVSTYYADSVKGRFTISRDNSKNTLYVQMTSLTAEDTAVYYCAKVVGYSVYDYYYHYALDVWGQGTTVTVSS
VL: QPVLTQPPSASGTPGQRVTISCSGSSSNIGSNTVNWYQQLPGTAPKLLIYSDNQRPSGVPDRFSGSKSGTSASLTISGLKTEDEAGYYCQSDDTSNVVFGGGTKVTVL

ADCC EC50, NFAT luciferase reporter Jurkat/hCD16a-158V [1]: 0.092 µg/mL
EC50 of hENTPD3 enzyme activity inhibition, CHO-hENTPD3 cells, antibody 30 minutes [1]: 17.3 µg/mL
ADCC EC50 (µg/mL), NFAT luciferase reporter Jurkat/hCD16a-158V [2]: 1.44 µg/mL
Enzyme Activity Inhibition Capacity: % of Maximal Inhibition [2]: 76%
Enzyme Activity Inhibition Capacity: EC50 [2]: 2.51 µg/mL
Kd [3]: 2.96 nM
Kd [4]: 5.53 nM
Kd [5]: 1.82 nM
Kd [6]: 11.9 nM
Kd [7]: 8.4 nM
Kd [8]: 10.1 nM
B7: PBI #30 hIgG1 (antibody, V domains shown)
VH: B6 VH with V58G, V106M
VL: QPVLTQPPSASGTPGQRVTISCSGSSSNIGSNTVNWYQQLPGTAPKLLIYSNNQRPSGVPDRFSGSKSGTSASLTISGLKTEDEAGYYCQSYDTSNVVFGGGTKVTVLG
notes: Fully human IgG1; also called clone PBI #30; original clone PBI #30 hIgG1

enzyme activity inhibition capacity, maximal inhibition [1]: ~100%
Enzyme Activity Inhibition Capacity: % of Maximal Inhibition [2]: 95%
Enzyme Activity Inhibition Capacity: EC50 [2]: 1.33 µg/mL
B8: PBI #30af4 hIgG4 (antibody, V domains shown)
VH: B6 VH
VL: B6 VL

ADCC EC50 (µg/mL), NFAT luciferase reporter Jurkat/hCD16a-158V [2]: 0.064 µg/mL
Enzyme Activity Inhibition Capacity: % of Maximal Inhibition [2]: 12%
B9: 4F9 Hu/Ra (antibody, V domains shown)
VH: QSVEESGGRLVTPGTPLTLTCTVSGFSLSSYAMGWVRQAPGKGLEFIGIITYNGNTYYASWAKGRFPISKTSSTTVDLKMTSPTTEDTATYFCARARYGGYSTNSYYLNIWGPGTLVTVSS
VL: DVVMTQTPASVSAAVGGTVTINCQASENIYRILAWYQQKPGQRPKLLIYGASNLETGVPSRFKGSGSGTEYTLTISDLECDDAATYYCQGVLYNSNDSTFGGGTEVVVKG

ADCC EC50 (µg/mL), NFAT luciferase reporter Jurkat/hCD16a-158V [2]: 0.072 µg/mL
Enzyme Activity Inhibition Capacity: % of Maximal Inhibition [2]: 12%
B10: 42D8 Hu/Ra (antibody, V domains shown)
VH: B9 VH with G54S, S60N
VL: B9 VL with R43P

ADCC EC50 (µg/mL), NFAT luciferase reporter Jurkat/hCD16a-158V [2]: 0.075 µg/mL
CDC EC50 [2]: 0.239 µg/mL
Enzyme Activity Inhibition Capacity: % of Maximal Inhibition [2]: 5%
B11: 8E1 Hu/Ra (antibody, V domains shown)
VH: B9 VH with T51S, N53S, T90N
VL: B9 VL with S12E, I32V, T56S, E70D, L92V, N96D, T99A
CDC % of Maximal Cytotoxicity [2]: 13%

ADCC EC50 (µg/mL), NFAT luciferase reporter Jurkat/hCD16a-158V [2]: 0.044 µg/mL
Enzyme Activity Inhibition Capacity: % of Maximal Inhibition [2]: 9%
B12: 37H1 Hu/Ra (antibody, V domains shown)
VH: B9 VH with M33V, N55A, K63E
VL: B9 VL with Y93W

ADCC EC50 (µg/mL), NFAT luciferase reporter Jurkat/hCD16a-158V [2]: 0.053 µg/mL
Enzyme Activity Inhibition Capacity: % of Maximal Inhibition [2]: 9%
B13: 16D4 Hu/Ra (antibody, V domains shown)
VH: B9 VH with N55G
VL: B9 VL with I32V, N94D, S95N

ADCC EC50 (µg/mL), NFAT luciferase reporter Jurkat/hCD16a-158V [2]: 0.045 µg/mL
Enzyme Activity Inhibition Capacity: % of Maximal Inhibition [2]: 15%
B14: 44H5 Hu/Ra (antibody, V domains shown)
VH: QEQLEESGGDLVKPEGSLTLTCTASGFDSSSTYYMCWVRQAPGKGLEWSGCIYTGGLTYYASWAKGRFTISKTSSTTVTLQMTSLTAADTATYFCASYIGSRFYMPGFSLWGPGTLVTVSS
VL: AIVMTQTPSSKSVPVGDTVTINCQASESIYSNNRLAWFQQKPGQPPKLLIYLASTLASGVPSRFKGSGSGTQFTLTISDVVCDDAATYYCAGYKGSSTDGTAFGGGTEVVVKG
